Measurements reported in US20180030118A1 (EMERGENT BIOSOLUTIONS CANADA, published 2018).

T1: MARV Ravn GPe (Marburg virus, strain Ravn, UniProt Q1PDC7 19-648)
T1 construct: extracellular domain; also called Marburg GP (Ravn) ectodomain
T1 sequence: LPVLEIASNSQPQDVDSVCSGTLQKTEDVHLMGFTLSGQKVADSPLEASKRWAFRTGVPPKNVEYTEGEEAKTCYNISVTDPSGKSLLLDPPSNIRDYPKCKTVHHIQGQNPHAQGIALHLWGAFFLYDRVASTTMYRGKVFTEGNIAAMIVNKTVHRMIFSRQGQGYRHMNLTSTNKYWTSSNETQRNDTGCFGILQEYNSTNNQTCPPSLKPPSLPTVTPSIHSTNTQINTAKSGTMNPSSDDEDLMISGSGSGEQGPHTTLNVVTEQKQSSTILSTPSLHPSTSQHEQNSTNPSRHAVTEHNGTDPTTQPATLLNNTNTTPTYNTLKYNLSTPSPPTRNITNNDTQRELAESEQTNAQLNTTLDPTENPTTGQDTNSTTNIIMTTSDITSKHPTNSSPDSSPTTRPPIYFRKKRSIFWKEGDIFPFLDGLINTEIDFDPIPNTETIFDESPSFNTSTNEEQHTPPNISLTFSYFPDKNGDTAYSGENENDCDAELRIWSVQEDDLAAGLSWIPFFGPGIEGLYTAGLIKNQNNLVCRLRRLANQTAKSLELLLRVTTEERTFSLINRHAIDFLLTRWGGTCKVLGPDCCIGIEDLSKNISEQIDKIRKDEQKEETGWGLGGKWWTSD

T2: MARV Angola GPe (Marburg virus, strain Angola, UniProt Q1PD50 19-648)
T2 construct: extracellular domain; also called Marburg GP (Angola) ectodomain
T2 sequence: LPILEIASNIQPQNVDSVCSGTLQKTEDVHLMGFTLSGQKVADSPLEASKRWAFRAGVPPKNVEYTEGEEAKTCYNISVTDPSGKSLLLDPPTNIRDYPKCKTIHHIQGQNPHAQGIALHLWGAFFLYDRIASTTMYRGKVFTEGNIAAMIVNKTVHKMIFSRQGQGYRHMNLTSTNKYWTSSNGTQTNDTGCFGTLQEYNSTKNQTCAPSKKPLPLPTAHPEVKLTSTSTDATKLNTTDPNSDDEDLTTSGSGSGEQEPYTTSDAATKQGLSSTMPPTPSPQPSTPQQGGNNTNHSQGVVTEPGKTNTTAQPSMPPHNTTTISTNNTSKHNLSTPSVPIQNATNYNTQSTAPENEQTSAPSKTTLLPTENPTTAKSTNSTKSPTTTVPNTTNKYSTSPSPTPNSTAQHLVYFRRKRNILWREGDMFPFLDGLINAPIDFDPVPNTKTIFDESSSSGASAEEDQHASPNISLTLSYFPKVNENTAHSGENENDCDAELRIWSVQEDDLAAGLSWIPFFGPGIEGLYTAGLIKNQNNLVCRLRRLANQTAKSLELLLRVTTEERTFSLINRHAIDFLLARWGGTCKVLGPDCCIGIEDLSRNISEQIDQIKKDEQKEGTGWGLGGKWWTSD

T3: MARV Musoke GPe (Marburg virus, strain Musoke, UniProt P35253 19-648)
T3 construct: extracellular domain; also called Marburg GP (Musoke) ectodomain
T3 sequence: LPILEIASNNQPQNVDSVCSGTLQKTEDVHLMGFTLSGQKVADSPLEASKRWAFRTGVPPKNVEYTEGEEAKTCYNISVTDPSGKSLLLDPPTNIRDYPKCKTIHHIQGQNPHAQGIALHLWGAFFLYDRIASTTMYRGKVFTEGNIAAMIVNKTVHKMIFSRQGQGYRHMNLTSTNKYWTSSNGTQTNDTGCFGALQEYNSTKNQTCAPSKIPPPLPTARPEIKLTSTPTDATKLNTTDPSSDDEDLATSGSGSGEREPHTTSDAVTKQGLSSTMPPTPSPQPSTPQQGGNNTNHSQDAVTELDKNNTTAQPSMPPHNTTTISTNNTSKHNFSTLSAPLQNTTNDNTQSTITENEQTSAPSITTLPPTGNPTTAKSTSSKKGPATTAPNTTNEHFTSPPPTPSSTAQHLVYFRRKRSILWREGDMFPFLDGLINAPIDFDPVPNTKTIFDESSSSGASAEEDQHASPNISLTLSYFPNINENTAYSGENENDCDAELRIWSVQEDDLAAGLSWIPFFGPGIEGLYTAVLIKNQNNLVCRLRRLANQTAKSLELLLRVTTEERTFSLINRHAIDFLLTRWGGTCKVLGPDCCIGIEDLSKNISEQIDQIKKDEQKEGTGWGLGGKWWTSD


How the values were obtained:
MARV Ravn GPe = molecular target: T1, MARV Ravn GPe; assay: ELISA, GP coated 200 ng/well, mAb at 2 ug/mL
MARV Angola GPe [1] = molecular target: T2, MARV Angola GPe; assay: ELISA, GP coated 200 ng/well, mAb at 2 ug/mL
MARV Musoke GPe [2] = molecular target: T3, MARV Musoke GPe; assay: ELISA, GP coated 200 ng/well, mAb at 2 ug/mL
MARV Angola GPe [3] = molecular target: T2, MARV Angola GPe; assay: ELISA on coated GPe (200 ng/well)
MARV Musoke GPe [4] = molecular target: T3, MARV Musoke GPe; assay: ELISA on coated GPe (200 ng/well)

Row | Binder | OD405 @ 30 min (MARV Ravn GPe) [OD405] | OD405 @ 30 min (MARV Angola GPe [1]) [OD405] | OD405 @ 30 min (MARV Musoke GPe [2]) [OD405] | binding result (MARV Angola GPe [3]) | binding result (MARV Musoke GPe [4])
1 | muCAN54G2 (antibody, V domains shown, also called murine CAN54G2) VH: QVQLQQSGTELVRPGTSVKISCKASGYDFTNFWLGWIKQRPGHGLEWIGDIYPGGDNTYYNEKFKGKVTLTADKSSNTAYMQFSSLTSEDSAVYFCFMILYTLDYWGQGTSVTVSS VL: not shown | 0.16 | 0.15 | 0.185 | – | –
2 | huCAN54G2 (antibody, V domains shown, also called humanized CAN54G2) VH: QVQLQQSGTEVKKPGASVKVSCKASGYDFTNFWLGWIRQAPGQGLEWIGDIYPGGDNTYYNEKFKGRVTLTADKSSNTAYMELSSLRSEDTAVYFCFMILYTLDYWGQGTLVTVSS VL: DVVMTQTPLTLPVTLGQPASISCTSSQSLLNSDGETYLNWLLQRPGQSPKRLIHLVSKLDSGVPDRFSGSGSGTDFTLKISRVEAEDVGVYYCWQGTHFPWTFGGGTKVEIK | 0.89 | 0.502 | 0.908 | – | –
3 | huCAN40G1 (antibody, V domains shown, also called humanized CAN40G1) VH: EVQLQQSGPEVKKPGASVKVSCRTSGYTFTEYTIHWVKQAPGKGLEWIGGINPNHGGTLYNQKFKGRVTLTVDKSSSTAYMELSRLRSDDTAVYYCARFTYDYWGQGTLVTVSS VL: DIVLTQSPASLAVSLGERATISCKASQSVDHDGDSYMNWYQQKPGQPPKLLIYATSNLESGIPARFSGSGSGTDFTLTISSLQAEDVATYYCQQSYEVPLTFGAGTKLEIK | 2.75 | 3.83 | 2.73 | – | –
4 | muCAN40G1 (antibody, V domains shown, also called murine CAN40G1) VH: EVQLQQSGPELVKPGASVKISCRTSGYTFTEYTIHWVKQSRGKSLEWIGGINPNHGGTLYNQKFKVKATLTVDKSSSTAYMELRSLTSEDSAVYYCARFTYDYWGQGTTLTVSS VL: DIVLTQSPASLAVSLGQRASISCKASQSVDHDGDSYMNWYQQKPGQPPKLLIYATSNLESGIPARFSGSGSGTDFTLNIHPVEEEDAATYYCQQSYEVPLTFGAGTKLELK | 0.504 | 0.857 | 0.536 | – | –
5 | muCAN30G5 (antibody, V domains shown, also called murine CAN30G5) VH: EVQLVESGGGLVQPKGSLKLSCAASGFAFNSYAMHWVCQAPGKGLEWVARIRIKSGNYATSYAGSVTDRFTVSRDDSQNLFYLQMNNLKTEDTAMYYCVREWEGAMDYWGQGTSVTVSS VL: DIVLTQSPLSLPVSLGDQASISCRSSQSLVHSNGNTYLHWYLQKPGQSPNLLIYKVSNRFSGVPDRFSGSGSGTDFTLKISRVEAEDLGVYFCSQSTHVPWTFGGGTKLEIK | 0.16 | – | – | no binding | no binding
6 | huCAN30G5 (antibody, V domains shown, also called humanized CAN30G5) VH: EVQLVESGGGLVQPGGSLKLSCAASGFAFNSYAMHWVRQASGKGLEWVARIRIKSGNYATSYAGSVKGRFTVSRDDSKNTFYLQMNSLKTEDTAMYYCVREWEGAMDYWGQGTLVTVSS VL: DIVLTQSPLSLPVTLGQPASISCRSSQSLVHSNGNTYLHWYQQRPGQSPRLLIYKVSNRFSGVPDRFSGSGSGTDFTLKISRVEAEDVGVYYCSQSTHVPWTFGGGTKVEIK | 2.74 | – | – | no binding | no binding
